# Data published in the supplement of paper PMC10724198.
# ± gives the standard deviation of the averaged measurements.
# Test system: Saccharomyces cerevisiae
# Test: protein stability index of tFT-peptide fusion (C-terminal peptide) (PSI (0-1 scale)); higher = more stable (slower turnover)
# Conditions: genetic background: wild type; temperature: 30 C
# 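Note: PSI is a weighted mean of sequencing reads over stability bins, variants kept only with over 10 reads, mCherry proximal and sfGFP distal, peptide attached via GGGS linker.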
row,Sequence,protein stability index
1,LGSSTGSVESLS,0.737 ± 0.048
2,LGTETASSGFSG,0.691 ± 0.029
3,LGTLLWWGAGRG,0.708 ± 0.02
4,LGVAFCAPRLFY,0.743 ± 0.023
5,LGVDFCRGVVVE,0.654 ± 0.035
6,LGVGGRWVVPGA,0.722 ± 0.032
7,LGVGSVGAKCGS,0.639 ± 0.0071
8,LGVVGYGLGGGK,0.707 ± 0.0096
9,LHAGWNLISSRL,0.633 ± 0.037
10,LHAPFPHPPPPP,0.6713 ± 0.005
11,LHFGSSSSRDFM,0.709 ± 0.027
12,LHPTPPPVLAPP,0.654 ± 0.12
13,LHRFPMISLLGP,0.699 ± 0.018
14,LICRRVRLSMRG,0.571 ± 0.028
15,LILLTIQSQPPV,0.622 ± 0.0018
16,LIPRCLIPVTRY,0.655 ± 0.018
17,LIQSDKTPRTTR,0.696 ± 0.012
18,LIVIGGGAVNGV,0.63 ± 0.069
19,LIWGRGGSRTGG,0.747 ± 0.062
20,LKDQFKNKNKSS,0.531 ± 0.04
21,LKELDTGVEQDE,0.671 ± 0.0096
22,LKIDTCSQQEEN,0.675 ± 0.11
23,LKKKKNKKQKTE,0.6152 ± 0.0053

row,Sequence,protein stability index
1,LKLQGGCLETGA,0.602 ± 0.015
2,LKNVKFTNNRKK,0.694 ± 0.014
3,LKQHDSNESASR,0.6565 ± 0.001
4,LKTGTAAGVKDH,0.684 ± 0.049
5,LLAGEDGGVGEE,0.653 ± 0.057
6,LLALAPFWVRHK,0.68 ± 0.011
7,LLALPFPPSSLF,0.701 ± 0.054
8,LLALQCSLFTPH,0.678 ± 0.15
9,LLAPPLPPPRHG,0.674 ± 0.018
10,LLCSSFSFHCFP,0.667 ± 0.0068
11,LLCYSGVIFGSV,0.59 ± 0.087
12,LLDEHGKRRKKI,0.713 ± 0.0011
13,LLFCFIPCVFWG,0.5096 ± 0.0029
14,LLFFSCGGVSSV,0.657 ± 0.053
15,LLFFSLFFSPLP,0.642 ± 0.041
16,LLFFSSCLDCFV,0.635 ± 0.026
17,LLFPPVCRPCLS,0.605 ± 0.11
18,LLFSRVDFSSPL,0.804 ± 0.098
19,LLFYSVPLSSSF,0.655 ± 0.072
20,LLGRSPSPTRPT,0.65732 ± 0.00035
21,LLGVGYGSGGWR,0.633 ± 0.089
22,LLGVYVRSFGSK,0.698 ± 0.015
23,LLHMSRLWYTTF,0.595 ± 0.022

row,Sequence,protein stability index
1,LLKNPFRGTSVF,0.737 ± 0.11
2,LLLFPRFPPPPL,0.711 ± 0.038
3,LLLPFVSPPVYS,0.569 ± 0.031
4,LLLPSLAPTPTA,0.654 ± 0.025
5,LLLSALLLSASP,0.625 ± 0.0083
6,LLLSALSRRPSF,0.678 ± 0.023
7,LLLSRLSPPPPS,0.716 ± 0.021
8,LLLVLGLSLVGL,0.564 ± 0.035
9,LLMHPCTVELIS,0.594 ± 0.042
10,LLPCLSSLPPLP,0.7 ± 0.064
11,LLPHALHVPFHL,0.707 ± 0.1
12,LLPHLLVLLPSS,0.623 ± 0.0049
13,LLPISFVSPPPG,0.6915 ± 0.0026
14,LLPLPPPPPPPP,0.685 ± 0.063
15,LLPLRPRSLGPP,0.693 ± 0.0011
16,LLPPALPESPPP,0.649 ± 0.0072
17,LLPPPSTPPRLI,0.716 ± 0.052
18,LLPPTPIAFPPS,0.728 ± 0.073
19,LLRALPSYRPFP,0.696 ± 0.016
20,LLRLPCHLSQAS,0.68 ± 0.035
21,LLRSSPPLPPPS,0.737 ± 0.029
22,LLSNTINRIWRN,0.658 ± 0.018
23,LLSSIPSLMFYY,0.667 ± 0.046

row,Sequence,protein stability index
1,LLSSLLLDQPYR,0.6455 ± 0.0036
2,LLSSPPSPGFSL,0.748 ± 0.12
3,LLSVVLPDSSLP,0.738 ± 0.065
4,LLTCRPPQCLLC,0.6303 ± 0.0038
5,LLTGCVPVLIRK,0.707 ± 0.093
6,LLTLPPPRLLSL,0.629 ± 0.022
7,LLTSFFTLFCNT,0.657 ± 0.05
8,LLVREVGVERTF,0.7636 ± 0.0024
9,LLVSVHFSPPLY,0.5515 ± 0.0023
10,LMFGDPIEANKE,0.67 ± 0.01
11,LMGASAAFIKKG,0.601 ± 0.067
12,LMYPGTSPLSPH,0.711 ± 0.092
13,LNEVSLLSPAPL,0.64 ± 0.057
14,LNHSLLHILSRV,0.656 ± 0.022
15,LNLSIRDVTSSG,0.657 ± 0.013
16,LNPLAILCSSVF,0.617 ± 0.037
17,LNSSRLSFFCLE,0.689 ± 0.079
18,LNWISKQVTEKH,0.676 ± 0.013
19,LPAFAPLCLPTL,0.703 ± 0.02
20,LPASWSRVSFAG,0.6825 ± 0.0034
21,LPCPSFPSLPFL,0.646 ± 0.1
22,LPGFPGPSCICH,0.703 ± 0.21
23,LPHPRPPQSPPQ,0.7 ± 0.03

row,Sequence,protein stability index
1,LPLLLPFRTPDF,0.693 ± 0.015
2,LPLLPLPSLSPP,0.713 ± 0.035
3,LPLLRWASPRGF,0.685 ± 0.0042
4,LPLPPLPPGMLS,0.747 ± 0.073
5,LPLPPPSPFPPL,0.691 ± 0.015
6,LPLQPSSNLTCL,0.70856 ± 0.00024
7,LPLSLPTPPALD,0.716 ± 0.075
8,LPPATMFFISAS,0.558 ± 0.019
9,LPPCPLFPPVHF,0.757 ± 0.1
10,LPPCPPGGRRSR,0.706 ± 0.036
11,LPPFLLPPFFSI,0.718 ± 0.055
12,LPPFPPPSAPPS,0.792 ± 0.023
13,LPPHRSSTPPPA,0.644 ± 0.02
14,LPPLLDSPPCSP,0.733 ± 0.04
15,LPPLPPIAPPPP,0.8126 ± 0.0041
16,LPPLPPPSPFPS,0.762 ± 0.074
17,LPPLPPSPPPLP,0.685 ± 0.024
18,LPPLPRPLLLPR,0.661 ± 0.044
19,LPPPAPRSHCPL,0.725 ± 0.098
20,LPPPLPPCPSGP,0.77 ± 0.048
21,LPPPPFPPPKPF,0.683 ± 0.0084
22,LPPPPLPPHPPL,0.748 ± 0.067
23,LPPPPLPQAPPT,0.702 ± 0.075

row,Sequence,protein stability index
1,LPPPPPCPPSPL,0.671 ± 0.024
2,LPPPPPPPASPD,0.699 ± 0.058
3,LPPPPPPPPLPH,0.705 ± 0.1
4,LPPPPTCYDHPL,0.676 ± 0.052
5,LPPPPTFPPPRS,0.8307 ± 0.0063
6,LPPPSAPFPLPP,0.743 ± 0.026
7,LPPPSPLPNSPL,0.716 ± 0.13
8,LPPPSPPSSAPP,0.734 ± 0.049
9,LPPPSPPTPPFP,0.691 ± 0.018
10,LPPPSPTPPPPP,0.683 ± 0.019
11,LPPRPPRPPPSP,0.666 ± 0.019
12,LPPSLPPRLPPP,0.658 ± 0.04
13,LPPSPILFPASP,0.754 ± 0.072
14,LPPSPPLPCPLL,0.75 ± 0.048
15,LPPSPRLSFSPP,0.701 ± 0.034
16,LPPSRSLLPPRP,0.6531 ± 0.0059
17,LPPTPSSRGPHS,0.669 ± 0.019
18,LPQPQPPVPPPL,0.7209 ± 0.0042
19,LPRPAPPIRPRT,0.74 ± 0.013
20,LPRPLSPPLPSP,0.702 ± 0.042
21,LPRPPPPPALPT,0.66 ± 0.087
22,LPRPPPRYLPPL,0.711 ± 0.059
23,LPRRLLFSYPTF,0.647 ± 0.02

row,Sequence,protein stability index
1,LPSAPLLPLLRP,0.68 ± 0.041
2,LPSASPPSPPPP,0.652 ± 0.037
3,LPSLSSFALHMP,0.685 ± 0.018
4,LPSPPVSIPYPS,0.671 ± 0.029
5,LPSPSGSPVPFL,0.771 ± 0.041
6,LPSPSSTLSPLR,0.674 ± 0.059
7,LPSPTTNLFKPN,0.711 ± 0.0091
8,LPSSCVLHMFFP,0.7111 ± 0.0024
9,LPTLPGWKASCL,0.674 ± 0.032
10,LPTPFKSSPSAA,0.674 ± 0.024
11,LPVGYVCGLWVG,0.543 ± 0.038
12,LPVSGLRAAGAM,0.7154 ± 0.0034
13,LQALQTKPSQAL,0.688 ± 0.083
14,LQDLPRLHALPN,0.727 ± 0.086
15,LQHRHSTSPRPT,0.657 ± 0.037
16,LQRVPTDAVPDC,0.7074 ± 0.0044
17,LQWSPQAELEGT,0.712 ± 0.043
18,LRCVPAVFFACK,0.647 ± 0.045
19,LRERKVYLVKIK,0.575 ± 0.006
20,LRETDGSGQYVR,0.686 ± 0.014
21,LRFWCFGDVCPV,0.754 ± 0.057
22,LRGACWLARTRT,0.677 ± 0.018
